Where a chain is given by its changes, count along the chain named. Numbers in names are those of the source.
B1: P-1271 (antibody, human IgG1, kappa, V domains shown)
VH: QVQLVQSGAEVKKPGASVKVSCKASGYTFTNYYMYWVRQAPGQGLEWMGGINPSNGGTNFAQKFQGRVTLTTDSSTSTAYMELSSLRSDDTAVYYCARRDYRFDMGFDYWGQGTLVTVSS
VL: EIVLTQSPATLSLSPGERATLSCRASQGVSTSGYSYLHWYQQKPGQAPRLLIYLASYRESGVPARFSGSGSGTDFTLTISSLEPEDFAVYYCQHSRDLPLTFGGGTKVEIKR
B2: P-1193 (antibody, human IgG1, kappa, V domains shown)
VH: EVQLLESGGGLVQPGGSLRLSCAASGFTFTNYYMYWVRQAPGKGLEWVSGINPSNGGTNFADKFKGRFTISRDNSKNTLYLQMNSLRAEDTAVYYCARRDYRFDMGFDYWGQGTLVTVSS
VL: B1 VL
notes: Full-length IgG1 L234A/L235A/G237A, kappa
B3: P-1199 (antibody, human IgG1, kappa, V domains shown)
VH: B2 VH with R72T, N74S
VL: B1 VL
notes: as for B2
B4: P-1201 (antibody, human IgG1, kappa, V domains shown)
VH: B2 VH with I70L, R72T, N74S
VL: B1 VL

Columns and labels:
[1] = target: T1, recombinant human PD1 protein (human, UniProt Q15116 25-170, limits assumed); assay: competition ELISA, PD1 coated, biotinylated human PD-L1-Fc at 0.5 µg/mL as competitor
T1 sequence (Q15116 25-170 limits assumed): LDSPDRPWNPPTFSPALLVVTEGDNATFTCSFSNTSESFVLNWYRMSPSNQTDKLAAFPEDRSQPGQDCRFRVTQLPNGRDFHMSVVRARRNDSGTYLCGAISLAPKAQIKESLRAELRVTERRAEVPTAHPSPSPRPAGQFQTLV
Description: A non-targeting germline antibody, P-1260 (SEQ ID NOS: 171, 172 and 173) was included as the negative control. The binding ELISA procedures were outlined in Example 3. The competition ELISA followed a similar protocol. […] After 1-hour incubation at 37° C., HRP-conjugated Streptavidin (ThermoFisher) diluted to 0.1 μg/ml were added to the plate and incubate at 37° C. for 1 hour. The plate was subsequently developed using TMB (ThermoFisher) substrate. Absorbance readings were taken at 450 nm, with 630 nm as the reference wavelength. The half-maximal inhibitory concentrations (IC50) values were deduced using GraphPad Prism software.

[2] = target: T1, recombinant human PD1 protein; assay: binding ELISA, plate-coated recombinant human PD1
Description: Antibodies of the invention were tested for their antigen binding activity by well-known methods such as enzyme-linked immunosorbent assay (ELISA). Briefly, Nunc Maxisorp plates (ThermoFisher) were coated with recombinant human PD1 protein in bicarbonate buffer, pH 9.4 (ThermoFisher), overnight at 4° C., using 1 μg of antigen per well (100 μL/well). After triple washing with PBS/0.05% Tween 20, plates were incubated with SuperBlock (ThermoFisher) for two hours at room temperature to block nonspecific binding. The PD1 antibodies, serially diluted three-fold with blocking buffer (PBS with 1% bovine serum albumin) were added to the plates (100 μL/well) post washing and incubated at room temperature for one hour. After another washing, antibodies were detected by incubating with a horseradish peroxidase (HRP)-conjugated goat anti-human IgG Fc antibody (ThermoFisher) diluted 1:5000 in blocking buffer (100 μL/well) for one hour at room temperature. After a final wash, TMB substrate (ThermoFisher) at 100 μL/well was added. Plates were sealed and left to incubate in dark for 5-20 minutes. The reaction was stopped by adding 2N sulfuric acid (Ricca Chemical) (50 μL/well), and the absorbance was measured at 450 nm with a plate reader. The curves were plotted, and the half-maximal effective concentration (EC₅₀) values were calculated using GraphPad Prism software.

human PD1 on cells [3] = target: T2, human PD1 on cells (human, UniProt Q15116 25-288); assay: cell-based or functional assay
T2 sequence (Q15116 25-288 limits assumed): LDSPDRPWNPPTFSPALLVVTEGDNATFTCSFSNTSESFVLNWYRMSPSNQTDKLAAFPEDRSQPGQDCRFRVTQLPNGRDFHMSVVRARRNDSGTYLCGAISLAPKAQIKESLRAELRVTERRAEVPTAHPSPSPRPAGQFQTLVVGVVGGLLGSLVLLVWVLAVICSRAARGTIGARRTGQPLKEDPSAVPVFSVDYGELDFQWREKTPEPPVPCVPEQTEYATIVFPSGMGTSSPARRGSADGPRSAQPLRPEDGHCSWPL

human PD1 on cells [4] = target: T2, human PD1 on cells; assay: flow cytometry on PD1+ HEK293 cells, MFI
Description: (§1) Additionally, HEK 293T cells stably expressing human PD1 gene (Crown Bioscience) was used to determine the cell-based binding strength of the optimized PD1 antibodies by flow cytometry. After harvesting, HEK293-hPD1 cells were seeded into a 96-well U-bottom plate at 1×10⁵ cells/well (100 μL), incubated with Fc block (1:50) for 20 minutes at 4° C., and subsequently washed with FACS buffer (PBS, 1% FBS). Cells were then treated with three-fold serial dilutions of each antibody at concentrations ranging from 0.01-100 nM in FACS buffer for 30 minutes at 4° C. Subsequently, cells were washed twice with FACS buffer to remove unbound molecules, and 40 µL of the 1:100 diluted PE-labeled goat anti-human Fc secondary antibody (eBiosciences) was added to the cells. Following a 30-minute incubation at 4° C. and another double wash with FACS buffer, antibodies bound to the cells were detected with PE-labeled secondary antibody by flow cytometry (BD ACCURI-C6), and EC₅₀ values were calculated using GraphPad Prism software.

human PD1 on cells [5] = target: T2, human PD1 on cells; assay: flow cytometry on PD1+ HEK293 cells, % positive cells
Description: as §1

| Binder | IC50 [1] [pM] | EC50 [2] [pM] | PD1 blockade reporter assay EC50 (human PD1 on cells [3]) [pM] | EC50 (human PD1 on cells [4]) [pM] | EC50 (human PD1 on cells [5]) [pM] |
| --- | --- | --- | --- | --- | --- |
| B1 | 1420 | 26.8 | 660 |  |  |
| B2 |  |  |  | 259 | 70 |
| B3 |  |  |  | 120 | 16 |
| B4 |  |  | 1280 | 159 | 33 |

From patent US20260078159A1 (CUGENE, published 2026)
